Laboratory results published in doi:10.1101/373860 (bioRxiv, 2018).

Target: the molecule itself
Assay: cryo-EM structure

B1: Arabidopsis thaliana two-pore channel 1 with D240N, D454N, E528Q (AtTPC1DDE), deletion of residues 2-11 (natural protein, UniProt Q94KI8 1-733, looked up)
chain: MGGGGTDRVRRSEAITHGTPFQKAAALVDLAEDGIGLPVEILDQSSFGESARYYFIFTRLDLIWSLNYFALLFLNFFEQPLWCEKNPKPSCKDRDYYYLGELPYLTNAESIIYEVITLAILLVHTFFPISYEGSRIFWTSRLNLVKVACVVILFVDVLVDFLYLSPLAFDFLPFRIAPYVRVIIFILSIRELRDTLVLLSGMLGTYLNILALWMLFLLFASWIAFVMFENTQQGLTVFTSYGATLYQMFILFTTSNNPDVWIPAYKSSRWSSVFFVLYVLIGVYFVTNLILAVVYDSFKEQLAKQVSGMDQMKRRMLEKAFGLIDSDKNGEIDKNQCIKLFEQLTNYRTLPKISKEEFGLIFDELDDTRDFKINKDEFADLCQAIALRFQKEEVPSLFEHFPQIYHSALSQQLRAFVRSPNFGYAISFILIINFIAVVVETTLNIEESSAQKPWQVAEFVFGWIYVLEMALKIYTYGFENYWREGANRFDFLVTWVIVIGETATFITPDENTFFSNGQWIRYLLLARMLRLIRLLMNVQRYRAFIATFITLIPSLMPYLGTIFCVLCIYCSIGVQVFGGLVNAGNKKLFETELAEDDYLLFNFNDYPNGMVTLFNLLVMGNWQVWMESYKDLTGTWWSITYFVSFYVITILLLLNLVVAFVLEAFFTELDLEEEEKCQGQDSQEKRNRRRSAGSKSRSQRVDTLLHHMLGDELSKPECSTSDT
In the case of B1, the “stoichiometry N” value is reported as 2.
